Measurements reported in patent US6465254, “Mutant loxP site and applications thereof” (Sumitomo Pharmaceuticals Company, Limited).
Residue numbers refer to the chain shown, from its start.

Columns and labels:
Settings in all cases: tags: expressed from recombinant adenovirus AxCANCre in 293 cells
[1] = target: T1, Cre recombinase (UniProt P06956 P06956:1-343); test: self x self; intermediate 4
Description: (§1) Substrate DNA (1 μg) prepared in (3) and cell extract containing Cre (10 μl) prepared in (1) were incubated at 37° C. for 30 min in a 50 μl volume of buffer containing 50 mM Tris-HCl (pH 7.5)/10 mM MgCl2/1 mg/ml bovine serum albumin/1 mM phenylmethylsulfonyl fluoride (PMSF)/5 μg/ml aprotinin. After completion of the reaction, 45 μl of TE buffer (pH 8.0) and 5 μl of EDTA solution (pH 8.0) were added to the reaction mixture, extracted with phenol/chloroform and with chloroform, followed ethanol precipitation. The recovered DNA was dissolveld in 30 μl of TE buffer (pH 8.0) containing RNase A (20 μg/ml). Half volume thereof was digested with restriction enzyme BsaHI. The DNA bands detected by ethidium bromide (EtBr) staining after agarose gel electrophoresis, were analyzed.
(§2) Before recombination mediated by Cre, restriction enzyme BsaHI digestion of linear substrate DNA (approx. 4.1 kb) generates four bands of 2.7 kb, 610 bp, 380 bp and 360 bp. On the other hand, as a result of recombination of substrate DNA mediated by Cre, a circular DNA of approx. 4.0 kb containing one mutant loxP, and a linear DNA of approx. 50 bp consisting of only mutant loxP, are produced. Digestion of these DNA with restriction enzyme BsaHI generates four bands of 2.7 kb, 920 bp, 380 bp and 50 bp (refer to FIG. 6).

[2] = target: T1, Cre recombinase; test: self x self; intermediate 6
[3] = target: T1, Cre recombinase; test: self x self; intermediate 3
[4] = target: T1, Cre recombinase; test: self x self; intermediate 6; remark: listed apart in the source
Description: as §1, §2

[5] = target: T1, Cre recombinase; test: self x self; intermediate 1
Description: as §1, §2

[6] = target: T1, Cre recombinase; test: self x self; intermediate 1; remark: listed apart in the source
[7] = target: T1, Cre recombinase; test: self x self; intermediate 5
Description: as §1, §2

[8] = target: T1, Cre recombinase; test: self x self; intermediate 4; remark: listed apart in the source

T1 sequence (P06956 whole entry, one chain of several): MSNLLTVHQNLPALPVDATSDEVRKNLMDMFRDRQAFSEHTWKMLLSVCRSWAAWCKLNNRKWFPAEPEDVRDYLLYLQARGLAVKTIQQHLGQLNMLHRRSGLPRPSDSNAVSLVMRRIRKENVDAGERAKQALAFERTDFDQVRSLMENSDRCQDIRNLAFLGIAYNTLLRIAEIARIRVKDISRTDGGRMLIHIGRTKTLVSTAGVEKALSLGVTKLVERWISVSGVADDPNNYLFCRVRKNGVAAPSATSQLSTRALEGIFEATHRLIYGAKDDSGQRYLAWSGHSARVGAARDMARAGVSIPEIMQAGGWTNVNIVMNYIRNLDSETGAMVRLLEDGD

B1: mutant loxP #11 (dsDNA)
DNA 1: ATAACTTCGTATAGTGTATGCTATACGAAGTTAT
DNA 2: B1 DNA 1 with T15C, G16A, T19C, G20A
activity [1]: 2 grade 0-9 final product

B2: mutant loxP #3272 (dsDNA)
DNA 1: B1 DNA 1 with G14A, G16C, G20C
DNA 2: ATAACTTCGTATAGGATAGATTATACGAAGTTAT
activity [2]: 2 grade 0-9 final product

B3: mutant loxP #4372 (dsDNA)
DNA 1: B1 DNA 1 with G14A, T17G, G20C
DNA 2: B2 DNA 2 with A18C, G19C
activity [3]: 2 grade 0-9 final product

B4: mutant loxP #22 (dsDNA)
DNA 1: B1 DNA 1 with G14A, T15A
DNA 2: B2 DNA 2 with G15C, G19C, A20T
activity [1]: 5 grade 0-9 final product

B5: mutant loxP #33 (dsDNA)
DNA 1: B1 DNA 1 with G14A, G16T
DNA 2: B2 DNA 2 with G15C, G19A
activity [4]: 6 grade 0-9 final product

B6: mutant loxP #2371 (dsDNA)
DNA 1: B1 DNA 1 with G14A, T15G, G20A
DNA 2: B2 DNA 2 with G15T, G19C, A20C
activity [3]: 2 grade 0-9 final product

B7: mutant loxP #2373 (dsDNA)
DNA 1: B1 DNA 1 with G14A, T15G, G20T
DNA 2: B2 DNA 2 with G15A, G19C, A20C
activity [2]: 1 grade 0-9 final product

B8: mutant loxP #61 (dsDNA)
DNA 1: B1 DNA 1 with G14A, T19C
DNA 2: B2 DNA 2 with G15C, A16G, G19C
activity [5]: 8 grade 0-9 final product

B9: mutant loxP #2273 (dsDNA)
DNA 1: B1 DNA 1 with G14A, T15A, G20T
DNA 2: B2 DNA 2 with G15A, G19C, A20T
activity [3]: 4 grade 0-9 final product

B10: mutant loxP #6373 (dsDNA)
DNA 1: B1 DNA 1 with G14A, T19G, G20T
DNA 2: B2 DNA 2 with G15A, A16C, G19C
activity [6]: 2 grade 0-9 final product

B11: mutant loxP #12 (dsDNA)
DNA 1: B1 DNA 1 with G14T
DNA 2: B2 DNA 2 with G15C, G19C, T21A
activity [4]: 3 grade 0-9 final product

B12: mutant loxP #5373 (dsDNA)
DNA 1: B1 DNA 1 with G14A, A18C, G20T
DNA 2: B2 DNA 2 with G15A, T17G, G19C
activity [6]: 2 grade 0-9 final product

B13: mutant loxP #41 (dsDNA)
DNA 1: B1 DNA 1 with G14A, T17C
DNA 2: B2 DNA 2 with G15C, A18G, G19C
activity [5]: 7 grade 0-9 final product

B14: mutant loxP #42 (dsDNA)
DNA 1: B1 DNA 1 with G14A, T17A
DNA 2: B2 DNA 2 with G15C, A18T, G19C
activity [7]: 6 grade 0-9 final product

B15: mutant loxP #4272 (dsDNA)
DNA 1: B1 DNA 1 with G14A, T17A, G20C
DNA 2: B2 DNA 2 with A18T, G19C
activity [8]: 1 grade 0-9 final product

B16: mutant loxP #32 (dsDNA)
DNA 1: B1 DNA 1 with G14A, G16C
DNA 2: B2 DNA 2 with G15C
activity [4]: 3 grade 0-9 final product

B17: mutant loxP #62 (dsDNA)
DNA 1: B1 DNA 1 with G14A, T19A
DNA 2: B2 DNA 2 with G15C, A16T, G19C
activity [5]: 8 grade 0-9 final product

B18: mutant loxP #52 (dsDNA)
DNA 1: B1 DNA 1 with G14A, A18T
DNA 2: B2 DNA 2 with G15C, T17A, G19C
activity [5]: 9 grade 0-9 final product

B19: mutant loxP #43 (dsDNA)
DNA 1: B1 DNA 1 with G14A, T17G
DNA 2: B2 DNA 2 with G15C, A18C, G19C
activity [7]: 6 grade 0-9 final product

B20: mutant loxP #6272 (dsDNA)
DNA 1: B1 DNA 1 with G14A, T19A, G20C
DNA 2: B2 DNA 2 with A16T, G19C
activity [6]: 2 grade 0-9 final product

B21: mutant loxP #53 (dsDNA)
DNA 1: B1 DNA 1 with G14A, A18C
DNA 2: B2 DNA 2 with G15C, T17G, G19C
activity [5]: 8 grade 0-9 final product

B22: mutant loxP #23 (dsDNA)
DNA 1: B1 DNA 1 with G14A, T15G
DNA 2: B2 DNA 2 with G15C, G19C, A20C
activity [4]: 5 grade 0-9 final product

B23: mutant loxP #2172 (dsDNA)
DNA 1: B1 DNA 1 with G14A, T15C, G20C
DNA 2: B2 DNA 2 with G19C, A20G
activity [8]: 2 grade 0-9 final product

B24: mutant loxP #2171 (dsDNA)
DNA 1: B1 DNA 1 with G14A, T15C, G20A
DNA 2: B2 DNA 2 with G15T, G19C, A20G
activity [3]: 3 grade 0-9 final product

B25: mutant loxP #63 (dsDNA)
DNA 1: B1 DNA 1 with G14A, T19G
DNA 2: B2 DNA 2 with G15C, A16C, G19C
activity [5]: 9 grade 0-9 final product

B26: mutant loxP #51 (dsDNA)
DNA 1: B1 DNA 1 with G14A, A18G
DNA 2: B2 DNA 2 with G15C, T17C, G19C
activity [5]: 9 grade 0-9 final product

B27: mutant loxP #21 (dsDNA)
DNA 1: B1 DNA 1 with G14A, T15C
DNA 2: B2 DNA 2 with G15C, G19C, A20G
activity [1]: 5 grade 0-9 final product

B28: mutant loxP #4271 (dsDNA)
DNA 1: B1 DNA 1 with G14A, T17A, G20A
DNA 2: B2 DNA 2 with G15T, A18T, G19C
activity [8]: 2 grade 0-9 final product

B29: mutant loxP #3271 (dsDNA)
DNA 1: B1 DNA 1 with G14A, G16C, G20A
DNA 2: B2 DNA 2 with G15T
activity [3]: 4 grade 0-9 final product

B30: mutant loxP #3373 (dsDNA)
DNA 1: B1 DNA 1 with G14A, G16T, G20T
DNA 2: B2 DNA 2 with G15A, G19A
activity [2]: 2 grade 0-9 final product

B31: mutant loxP #3171 (dsDNA)
DNA 1: B1 DNA 1 with G14A, G16A, G20A
DNA 2: B2 DNA 2 with G15T, G19T
activity [8]: 7 grade 0-9 final product

B32: mutant loxP #5272 (dsDNA)
DNA 1: B1 DNA 1 with G14A, A18T, G20C
DNA 2: B2 DNA 2 with T17A, G19C
activity [6]: 4 grade 0-9 final product

B33: mutant loxP #4371 (dsDNA)
DNA 1: B1 DNA 1 with G14A, T17G, G20A
DNA 2: B2 DNA 2 with G15T, A18C, G19C
activity [8]: 2 grade 0-9 final product

B34: mutant loxP #13 (dsDNA)
DNA 1: B1 DNA 1 with G14C
DNA 2: B2 DNA 2 with G15C, G19C, T21G
activity [1]: 3 grade 0-9 final product

B35: mutant loxP #3372 (dsDNA)
DNA 1: B1 DNA 1 with G14A, G16T, G20C
DNA 2: B2 DNA 2 with G19A
activity [2]: 1 grade 0-9 final product
